According to patent publication US20250042970A1:
pEC50, pIC50, pKd: −log10 of the molar value. Like-named read-outs stand apart in the source and are kept apart here.

Key:
[1] = molecular target: soluble huBAFF (Example 12) (human) (UniProt Q9Y275)
[2] = molecular target: FLAG-tagged human BAFF (human) (UniProt Q9Y275); assay: KinExA
[3] = molecular target: FLAG-tagged recombinant human APRIL (human) (UniProt O75888); assay: KinExA
[4] = molecular target: 6HIS-tagged murine BAFF (mouse) (UniProt Q9WU72); assay: BIACORE SPR
Chain of 6HIS-tagged murine BAFF (mouse) (Q9WU72 127-309 limits assumed): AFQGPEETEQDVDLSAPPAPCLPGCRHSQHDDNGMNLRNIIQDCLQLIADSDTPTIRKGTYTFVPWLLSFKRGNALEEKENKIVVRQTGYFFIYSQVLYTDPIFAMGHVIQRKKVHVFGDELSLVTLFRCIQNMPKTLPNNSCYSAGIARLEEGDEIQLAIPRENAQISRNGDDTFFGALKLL

[5] = molecular target: FLAG-tagged murine megaAPRIL (mouse) (UniProt Q9D777); assay: BIACORE SPR
[6] = molecular target: FLAG-tagged cynomolgous APRIL (cynomolgus monkey); assay: BIACORE SPR
Chain of FLAG-tagged cynomolgous APRIL (cynomolgus monkey) (A0ACM8 entry or part of it limits assumed): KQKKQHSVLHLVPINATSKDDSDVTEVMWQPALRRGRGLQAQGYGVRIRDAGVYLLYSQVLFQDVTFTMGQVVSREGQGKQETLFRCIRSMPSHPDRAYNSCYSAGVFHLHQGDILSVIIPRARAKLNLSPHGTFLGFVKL

[7] = molecular target: FLAG-tagged human BAFF (human) (UniProt Q9Y275); assay: BIACORE SPR
membrane-huBAFF (human) = membrane-huBAFF (human) (UniProt Q9Y275)
[8] = molecular target: human BAFF (Examples 21-23) (human) (UniProt Q9Y275); assay: assay not given (Example 21)
[9] = molecular target: human APRIL (Examples 21-23) (human) (UniProt O75888); assay: assay not given (Example 21)
Chain of human APRIL (Examples 21-23) (human) (O75888 105-250 limits assumed): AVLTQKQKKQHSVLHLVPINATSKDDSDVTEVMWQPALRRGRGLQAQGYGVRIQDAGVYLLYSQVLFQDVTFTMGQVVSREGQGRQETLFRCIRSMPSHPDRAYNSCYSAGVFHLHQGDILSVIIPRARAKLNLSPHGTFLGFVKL

[10] = molecular target: human BAFF (Examples 21-23) (human) (UniProt Q9Y275); assay: colorimetric ELISA, inhibition curve (450 nm against LogM of the fusion protein) for human BAFF; the partner on the plate not given
syndecan-2 [11] = assay: colorimetric ELISA, binding curve (450 nm against LogM) on syndecan-2; curve rises to about 1.1 at LogM about -6.7, no plateau
Chain of syndecan-2 (P34741 whole entry, the tested form may be a part): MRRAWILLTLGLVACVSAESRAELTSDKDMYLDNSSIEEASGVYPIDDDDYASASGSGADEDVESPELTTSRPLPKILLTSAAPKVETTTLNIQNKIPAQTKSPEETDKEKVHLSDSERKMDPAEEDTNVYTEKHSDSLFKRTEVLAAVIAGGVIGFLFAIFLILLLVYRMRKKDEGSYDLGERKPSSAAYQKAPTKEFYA

[12] = molecular target: human APRIL (Examples 21-23) (human) (UniProt O75888); assay: colorimetric ELISA, inhibition curve (450 nm against LogM of the fusion protein) for human APRIL; the partner on the plate not given
syndecan-1 [13] = molecular target: T1, syndecan-1; assay: colorimetric ELISA, binding curve (450 nm against LogM) on syndecan-1; curve rises to about 0.7 at LogM about -6.7, no plateau
T1 sequence (P18827 whole entry, species assumed, looked up): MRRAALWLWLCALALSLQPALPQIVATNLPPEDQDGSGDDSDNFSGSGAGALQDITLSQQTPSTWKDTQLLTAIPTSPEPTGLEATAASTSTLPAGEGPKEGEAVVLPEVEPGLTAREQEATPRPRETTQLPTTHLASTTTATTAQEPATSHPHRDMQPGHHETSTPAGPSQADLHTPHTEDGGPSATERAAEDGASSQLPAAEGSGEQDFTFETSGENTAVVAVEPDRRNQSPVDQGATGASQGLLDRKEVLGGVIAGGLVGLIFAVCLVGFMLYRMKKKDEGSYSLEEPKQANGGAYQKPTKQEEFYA

[14] = molecular target: murine APRIL (Examples 22-23) (mouse) (UniProt Q9D777); assay: colorimetric ELISA, inhibition curve (450 nm against logM of the fusion protein) for mouse APRIL; the partner on the plate not given
Chain of murine APRIL (Examples 22-23) (mouse) (Q9D777 96-241 limits assumed): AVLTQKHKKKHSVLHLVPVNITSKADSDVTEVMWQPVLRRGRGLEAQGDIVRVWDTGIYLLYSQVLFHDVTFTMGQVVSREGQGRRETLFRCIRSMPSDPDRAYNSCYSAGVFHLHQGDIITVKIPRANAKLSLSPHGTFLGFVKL

[15] = molecular target: murine APRIL (Examples 22-23) (mouse) (UniProt Q9D777); assay: SPR (Carterra LSA, HC30M chip)
[16] = molecular target: murine BAFF (Examples 22-23) (mouse) (UniProt Q9WU72); assay: SPR (Carterra LSA, HC30M chip)
Chain of murine BAFF (Examples 22-23) (mouse) (Q9WU72 127-309 limits assumed): as the sequence (Q9WU72 127-309 limits assumed) above

[17] = molecular target: human BAFF (Examples 21-23) (human) (UniProt Q9Y275); assay: SPR (Carterra LSA, HC30M chip)
[18] = molecular target: human APRIL (Examples 21-23) (human) (UniProt O75888); assay: SPR (Carterra LSA, HC30M chip)
[19] = molecular target: murine BAFF (Examples 22-23) (mouse) (UniProt Q9WU72); assay: colorimetric ELISA, inhibition curve (450 nm against logM of the fusion protein) for mouse BAFF; the partner on the plate not given
[20] = molecular target: human APRIL (Acros Biosystems) (human) (UniProt O75888); assay: cell-based or functional assay
Chain of human APRIL (Acros Biosystems) (human) (O75888 115-250 limits assumed): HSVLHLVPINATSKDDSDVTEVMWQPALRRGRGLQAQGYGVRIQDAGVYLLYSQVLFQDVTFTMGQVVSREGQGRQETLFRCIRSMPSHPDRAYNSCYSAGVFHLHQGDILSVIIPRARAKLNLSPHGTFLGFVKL

[21] = molecular target: human BAFF-60mer (Adipogen) (human) (UniProt Q9Y275); assay: cell-based or functional assay
[22] = molecular target: human BAFF (Acros Biosystems) (human) (UniProt Q9Y275); assay: cell-based or functional assay
[23] = molecular target: FLAG-tagged human BAFF (human) (UniProt Q9Y275); assay: BIACORE SPR; Table 3 experiment (BAv8-10 derivative series), control run
[24] = molecular target: FLAG-tagged cynomolgous APRIL (cynomolgus monkey); assay: BIACORE SPR; remark: listed apart in the source
[25] = molecular target: FLAG-tagged human BAFF (human) (UniProt Q9Y275); assay: BIACORE SPR; remark: listed apart in the source
[26] = molecular target: FLAG-tagged human BAFF (human) (UniProt Q9Y275); assay: KinExA; remark: listed apart in the source
syndecan-2 [27] = assay: colorimetric ELISA, binding curve (450 nm against LogM) on syndecan-2; curve rises to about 2.4 at LogM about -6.7, no plateau
syndecan-1 [28] = molecular target: T1, syndecan-1; assay: colorimetric ELISA, binding curve (450 nm against LogM) on syndecan-1; curve rises to about 1.8 at LogM about -6.7, no plateau

Chain of RC18 (Telitacicept) (Fc fusion) (chain): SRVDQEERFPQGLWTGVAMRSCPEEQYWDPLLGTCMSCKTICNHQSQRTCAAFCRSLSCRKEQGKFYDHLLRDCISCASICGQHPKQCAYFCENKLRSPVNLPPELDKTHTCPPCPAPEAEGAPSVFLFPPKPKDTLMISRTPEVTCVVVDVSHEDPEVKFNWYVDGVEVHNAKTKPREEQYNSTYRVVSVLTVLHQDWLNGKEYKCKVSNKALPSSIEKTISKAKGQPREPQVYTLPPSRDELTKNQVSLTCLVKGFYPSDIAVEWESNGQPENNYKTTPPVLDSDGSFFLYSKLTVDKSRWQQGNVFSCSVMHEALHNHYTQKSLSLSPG
Chain of FLAG-tagged recombinant human APRIL (human) (O75888 105-250 limits assumed): as the sequence (O75888 105-250 limits assumed) above

Substance | IC50 (read off the curve) (NFkappaB luciferase signal of HEK293-huBCMA reporter cells stimulated with soluble huBAFF) [1] [nM] | pKd [2] | Selectivity for huBAFF (KD APRIL/KD BAFF) [2] | fold improvement over control [2] [fold] | pKd [3] | Selectivity for huAPRIL (KD BAFF/KD APRIL) [3] | fold improvement over control [3] [fold] | pKd [4] | pKd [5] | pKd [6] | fold improvement KD vs control [6] [fold] | pKd [7] | fold improvement KD vs control [7] [fold] | pIC50 [10] | pIC50 [12] | pIC50 [14] | pKd [16] | pKd [17] | pKd [18] | pIC50 [19] | further results
Z-TACI-Ig fusion protein (from UniProt O14836 30-110) (Fc fusion) | 5 | 9.82 | 0.9 | 1.5 | 9.88 | 1.15 | 0.001 | 9.64 | 9.38 | 8.92 | 0.01 | 10.13 | 1.6 |  |  |  |  |  |  |  | IC50 (read off the curve) (NFkappaB luciferase signal of HEK293-huBCMA reporter cells stimulated with HEK-293 cells expressing membrane huBAFF) (membrane-huBAFF (human)): 5 nM
Atacicept (Fc fusion) |  |  |  |  |  |  |  |  |  |  |  |  |  | 8.17 | 8.44 | 6.67 | 9.27 | 9.04 | 10.17 | 7.51 | pKd [8]: 9.82; pKd [9]: 9.89; pEC50 (syndecan-2 [11]): 5.27; pEC50 (syndecan-1 [13]): 6.92; pKd [15]: 9.89; IC50 for proliferation of stimulated B cells, Donor 1, APRIL + anti-IgM [20]: 3 nM; IC50 for proliferation of stimulated B cells, Donor 2, APRIL + anti-IgM [20]: 0.01 pM; IC50 for proliferation of stimulated B cells, Donor 3, APRIL + anti-IgM [20]: 2.15 nM; IC50 for proliferation of stimulated B cells, Donor 1, BAFF-60mer + anti-IgM [21]: 2.06 nM; IC50 for proliferation of stimulated B cells, Donor 2, BAFF-60mer + anti-IgM [21]: 0.683 nM; IC50 for proliferation of stimulated B cells, Donor 3, BAFF-60mer + anti-IgM [21]: 1.13 nM; IC50 for proliferation of stimulated B cells, Donor 1, BAFF + anti-IgM [22]: 0.64 nM; IC50 for proliferation of stimulated B cells, Donor 2, BAFF + anti-IgM [22]: 0.0985 nM; IC50 for proliferation of stimulated B cells, Donor 3, BAFF + anti-IgM [22]: 0.379 nM
[S40G]huBCMA ECD-Ig fusion protein (from UniProt Q02223 5-54) (Fc fusion) | 2 | 9.65 | 0.0007 | 1 | 12.80 | 1420 | 1 | 10.17 | 10.67 | 10.82 | 1 | 9.92 | 1 |  |  |  |  |  |  |  | pKd [23]: 9.76; pKd [24]: 10.24; fold improvement over control [24]: 1 fold; fold improvement over control [25]: 1 fold; pKd [26]: 9.65
RC18 (Telitacicept) (Fc fusion) |  |  |  |  |  |  |  |  |  |  |  |  |  | 7.91 | 8.17 | 6.63 | 11.64 | 9.21 | 10.09 | 7.41 | pEC50 (syndecan-2 [27]): 7.15; IC50 for proliferation of stimulated B cells, Donor 1, APRIL + anti-IgM [20]: 2.51 nM; IC50 for proliferation of stimulated B cells, Donor 2, APRIL + anti-IgM [20]: 573 pM; IC50 for proliferation of stimulated B cells, Donor 3, APRIL + anti-IgM [20]: 4.14 nM; IC50 for proliferation of stimulated B cells, Donor 1, BAFF-60mer + anti-IgM [21]: 2.37 nM; IC50 for proliferation of stimulated B cells, Donor 2, BAFF-60mer + anti-IgM [21]: 0.818 nM; IC50 for proliferation of stimulated B cells, Donor 3, BAFF-60mer + anti-IgM [21]: 1.97 nM; IC50 for proliferation of stimulated B cells, Donor 1, BAFF + anti-IgM [22]: 1.98 nM; IC50 for proliferation of stimulated B cells, Donor 2, BAFF + anti-IgM [22]: 0.295 nM; IC50 for proliferation of stimulated B cells, Donor 3, BAFF + anti-IgM [22]: 1.05 nM; pEC50 (syndecan-1 [28]): 6.80
